Reference: the supplement of paper PMC9942255
Values joined by “and” are separate entries in the source; they are usually repeats but may differ in a detail not shown here. Identical values can stand only once.

System: Bacillus subtilis DB104 (SP-AmyQ fusion secretion)
Experiment: AmyQ secretion efficiency, weighted average sort bin (1 = best secretion, 10 = worst) (bin number (weighted average, 1-10)); higher = lower secretion efficiency
Procedure, shortened: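 The secretion score was taken as the read-frequency-weighted mean bin number, normalised to beads per bin, with low-abundance sequences excluded. Bins came from large-particle flow cytometry sorting of occupied alginate beads (~65 nL, about 0.3 cells each, with fluorescein-starch) into 10 equally populated groups by green/red fluorescence ratio after about 13 h at room temperature and nile red staining. The cells were a B. subtilis DB104 library with mature AmyQ fused to designed signal peptides, integrated at amyE, and each bin's amplicons were Illumina-sequenced.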

| Sequence | AmyQ secretion efficiency |
| --- | --- |
| MGGSILIQVMIMFTLLLTMAFSADAADS | 5.96 |
| MHLIRAAGAVCLAVVLIAGCRFNEDQHQAESENT | 3.48 |
| MKKRKVLTGSVLSLGLLVSASPAFATSP | 1.37 |
| MRKKTKNRLISSVLSTVVISSLLFAPGAAGASSK | 2.22 |
| MKKWIYTYKVLSIAGIGGFSVHAASS | 6.93 |
| MKVCQKSIVRFLVSLIIGTFVISVPFMANFQSD | 5.64 |
| MLTKRLLTIYIMLLGLIAWFPGAAQAAED | 2.99 |
| MKKLIMALVILGALKKRKKKISADSS | 8.07 |
| MKSCKQLRRCKRRRILLLIPSVSFAADS | 7.57 |
| MRRKKRKVVGFLSVLGLAAVFPLTAQAEKA | 2.12 |
| MKRKLLSSLAISALSLGLLVSAPTALFAAES | 2.49 |
| MKKRLIAPMLLSAASLAFFAMSGSAQNAAY | 8.43 |
| MKKRLIAPMLLSAASLAFFAMSGSIQAAAY | 6.12 |
| MGRIKTKITILLVLLLLLAGGYMYIN | 5.89 and 6.33 and 5.86 |
| MKNMSCKLVVSVTLFFSFLTIGPLAHRQNS | 6.88 |
| MKKKQVMLALTAAAGLGLTALGSAPAAKAAPL | 2.2 |
| MKQGRTFLTSFMLLAMTGQTALAKDV | 4.71 |
| MFNRLRVCFLAALIMAFTLPNSVYAQKP | 2 |
| MTKTIFAFLTGLMMFGTITAASASPD | 3.99 |
| MKRFSTLLLGILCSAAVFLIGAPSRALGAEV | 2.96 |
| MRPLILSAVLFLSCFFGARQTEASASKR | 3.63 |
| MKKQSMALVILGALGTSYISADSS | 5.2 |
| MKLSVKIAGVLTVAAAAMTAKMYATAAGD | 6.46 |
| MKKVLMAFIICLSLILSVLAAPPSGGKAESV | 5 |

| Sequence | AmyQ secretion efficiency |
| --- | --- |
| MLLKWMSGLLLVAVGFSFTQVMVHAGET | 5.02 |
| MRKKCSVCLWILVLLLSCKRGKSAYAATS | 6.83 |
| MPYLKRVLLLLVTGLFMSLFRKRRKRASAQTG | 6.94 |
| MSRIRIPMTLALGAALTIAPLSFASAEEN | 3.2 |
| MILITINIITMFIAAAVISLTGTAEAAEK | 4.83 |
| MKKRFSLRRRKRKLFGLTSPAFAAEK | 7.37 |
| MKKRLIGFLVLVPALIMSGITLIEANSE | 7.68 |
| MKRLLVSLRVWMVFLMNWVTPDRKTYAAAVY | 6.89 |
| MRGKSAVLLSLIMLIAGFLISFNFQM | 6.3 |
| MKRLKKTLLIGIMLLTFAPSAFAKQD | 1.92 |
| MTMLRKIIGWILLLCIIPLFAFTVIASYKEV | 6.87 |
| MKKWMAGLFLAAAVLLCLMVPQQSQGASS | 5.65 |
| MKKCLLFLTTIALILKRRTNAFAKNT | 7.37 |
| MNLRKILLSSALSLGMLEDDAPVLATSS | 2.76 |
| MKKAAAVLLSLGLVFGFSYGAGHVKEAKTK | 6.72 |
| MFKFKKNTRGGLSAALMSISLFSATASAAST | 3.49 |
| MHLIRAAGAVCLAVVLIAGCRFNEDQHQLEGENT | 6.09 |
| MRNLTKTSLLLAGLCTAAQMVFVTHSSAEES | 4.02 |
| MRSYIKVLTMCFLGLILFVPTALKDNS | 7.49 |
| MKVPKTMLLSTAAGLLTATSVSAHYV | 6.58 |
| MLMLWNSLALCGLALTLAPCAQAAEP | 2.76 |
| MTKLKMLSMGKRRTASLFIFSSQALAVQY | 7.8 |
| MKKRFSGQMMTGLLFGLTSPAFAAEK | 6.38 |
| MKIRKILLSSALSFGMLVISAVPALAAGT | 2.24 |

| Sequence | AmyQ secretion efficiency |
| --- | --- |
| MIVLSTIITFNFIILLFISIIVFLSVIQPQPS | 5.66 |
| MRPVFPLILSAVLFLSCFFGATQTEASASKR | 2.13 |
| MKRFSTAYTTGGILCSAAVFLIGAPSRALGAEV | 8.46 |
| MKKFLVALTMCGGLFVTPAKAVKT | 3.65 |
| MPYLKRVLLLLVTGLFMSLFAVTATASAEDD | 3.73 |
| MRKKRYGKCRQGSSLTLGSLLPAGYATAKED | 8.17 |
| MKVLLSALLLLLFAFEPSKSGKKL | 6.03 |
| MRSKKLWISLLFALTLIFAMAFIAMIAQAAGK | 2 |
| MMIKQCKRCKKRKVFGTTAAHAEET | 7.72 |
| MRKKRVITCVMAASLTLGSLLPAGYATADDE | 4.08 |
| MKKRFSLIMMTGLLFGLTSPTFAAEK | 3.56 |
| MQRKRLLTIYIMLLGLIAWFPGAAQAEEK | 1.93 |
| MLKKKWMVGLLAGCLAAGGFSYNNFATEN | 6.75 |
| MKKKLAAGLTASAIVGTTLVVTPAEGATI | 3.33 |
| MKLSVKIAGVLTVAAAAMTAKMYATYKGN | 7.14 |
| MRKKKWMVGLLAGCLAAGGFSYNAFATEN | 3.58 |
| MRPVFPLILSAVLFLSCFSVSTFFGARQTEASASKR | 2.65 |
| MRKYTFVIASILLSFLSVLSGGHHESKAFPV | 5.44 |
| MHLIRAAGAVCLAVVLIAGCAFNEDQHQAEGENT | 5.56 |
| MRKKKWRVGLLAGCLAAGGFSYNAFATEN | 5.68 |
| MKKRLIGFLVLVPALIMSGITLAEANKK | 7.38 |
| MMKKLFHSTLRKLLFFSFFGVQPIHAKKQ | 7.14 |
| MKSKGSIMACLILFSFTITTFINTETTSAFSN | 5.51 |
| MRGKSAVLLSLIMLIAGFLDDDEEDSFSFQM | 8.01 |

| Sequence | AmyQ secretion efficiency |
| --- | --- |
| MKNMSCKLVVSVTLFFSFLFTIGPLAHAQNS | 1.19 |
| MNFKKTVVSALSISALALSVSGVVSAHEI | 2.69 |
| MKRMCSICCAAVLLAGGAAQAEAV | 3.05 |
| MKKFVAVAALSTTAFGAHASAKEI | 6.74 |
| MKKIVSILFMFGLVMGFSQFQPSTGFAADK | 3.91 |
| MKRRFMKASLVLFAVVFVFAVKGAPAKAETH | 2.6 |
| MKSKWMRQKRLVAVGFSFTQVMVHAGET | 8.54 |
| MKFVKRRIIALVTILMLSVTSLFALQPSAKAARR | 1.74 |
| MKVLLSALLLLFEPSASGKKL | 7.48 |
| MRSYIKVLTMCFLGLILFVPTALGDNS | 2.8 |
| MRPVFPLILSAVLFLSCFFGARQTEVSASKR | 2.58 |
| MKSKGSIMACLILFSFTITTFINTETISQFSN | 7.33 |
| MMKKLFHSTLIVLLFFSFFGVQPGHAKKQ | 2.96 |
| MKRLFMKASLVLFAVVFVFAVKGADEEDEEEAKAETH | 7.15 |
| MSMMLRRNFKRFIAAFLVLALMISLVPADVLAKST | 1.81 |
| MPYLKRVLLLLVTGLFMSLFAVTATASVQTG | 1.13 |
| MKKAFLVFLSVVLVTTVFLVKQQESVAQVKQL | 3.34 |
| MKSKWMSGLLLVAVGFSFTQVMGGFFAVHAGET | 7.03 |
| MKTLRTLCVLMILSGVIFFGLKIDADDD | 6.82 |
| MNKLKRLSMLTVMIASVFIFSASFFTSHALAAQY | 2.06 |
| MFKKHMNNFTISLLIIFLLASAVLAKPIEAHTV | 3.28 |
| MKNMSCKTSGSTTGGTSFLTIGPLAHAQNS | 6.59 |
| MKRLLSTLLIGIMLLFFAGVAFAKQD | 3.63 |
